# Source: publication PMC13544220, “Glycemic and bodyweight effects of GIPR coding variation reflect differences in surface expression and intrinsic functional impairment” (Science Advances, 2026)
# Positions count from the first letter of the chain named. Names may count otherwise.
# B1: G438S (protein, UniProt P48546 22-466, looked up, variant G438S)
# Gastric inhibitory …: RAETGSKGQTAGELYQRWERYRRECQETLAAAEPPSGLACNGSFDMYVCWDYAAPNATARASCPWYLPWHHHVAAGFVLRQCGSDGQWGLWRDHTQCENPEKNEAFLDQRLILERLQVMYTVGYSLSLATLLLALLILSLFRRLHCTRNYIHINLFTSFMLRAAAILSRDRLLPRPGPYLGDQALALWNQALAACRTAQIVTQYCVGANYTWLLVEGVYLHSLLVLVGGSEEGHFRYYLLLGWGAPALFVIPWVIVRYLYENTQCWERNEVKAIWWIIRTPILMTILINFLIFIRILGILLSKLRTRQMRCRDYRLRLARSTLTLVPLLGVHEVVFAPVTEEQARGALRFAKLGFEIFLSSFQGFLVSVLYCFINKEVQSEIRRGWHHCRLRRSLGEEQRQLPERAFRALPSGSGPSEVPTSRGLSSGTLPGPGNEASRELESYC
# B2: R300W (protein, UniProt P48546 22-466, looked up, variant R300W)
# Gastric inhibitory …: B1 Gastric inhibitory … with R279W, S417G
# Experiments:
# Format in all cases: cell-based, human
# [1] = test system: wild-type and variant SNAP-GIPR; assay: cADDis cAMP imaging in AD293 cells, ensemble, expression-matched and per decile; conditions: Fig S3F, cADDis, mean;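 further: Ensemble cells as % of IBMX/FSK response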
# In short: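 Variants and wild type ran in parallel in transfected AD293 cells carrying cADDis. Single-cell sensor intensity, with nonresponders to IBMX/FSK removed, was paired with SNAP-Surface 647 labeling to allow expression-matched analysis.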
# [2] = test system: wild-type and variant SNAP-GIPR; assay: Constitutive and agonist-mediated internalization, reversible SNAP-tag labelling, AD293 cells; set-up: key to Internalisation, Vehicle / Internalisation, +GIP / Internalisation, GIP-only: % internalization: residual fluorescence after Mesna vs pre-Mesna; Surface expression: unit not given here; conditions: Mean; for +GIP internalisation (100 nM) / GIP-specific internalisation (100 nM) / Constitutive internalisation (100 nM) / Surface expression: Fig 4E; for +GIP internalisation (100 nM) / GIP-specific internalisation (100 nM): GIP 100 nM; for Internalisation, +GIP / Internalisation, GIP-only / Internalisation, Vehicle: Fig S4C, AD293
# In short: (§1)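 Surface SNAP-GIPR signal removable by Mesna was tracked by imaging before and 10 min after treatment in pH 8.6 TNE buffer. Internalization is the Mesna-resistant share of specific fluorescence.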
# [3] = test system: wild-type and variant SNAP-GIPR; assay: Single-concentration GIP cAMP response by HTRF in AD293 cells; conditions: Fig S3F, HTRF, mean;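 further: ratio to experiment-wide average response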
# Protocol: (§2) All variants were tested in parallel on each occasion to control for transfection efficiency differences between experiments.
# [4] = test system: wild-type and variant SNAP-GIPR; assay: Surface SNAP-GIPR expression (SNAP-tag labelling) in INS-1 cells; conditions: Fig 4G; Mean
# In short: (§3)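 Surface GIPR is quantified from wide-field images after labelling intact transfected cells with a membrane-impermeant SNAP probe at 500 nM for 10 min at room temperature. Specific signal, corrected for nontransfected cells, is normalized to the experiment-wide average or to wild-type.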
# [5] = test system: wild-type and variant SNAP-GIPR; assay: Constitutive and agonist-mediated internalization, reversible SNAP-tag labelling, INS-1 cells; set-up: key to Internalisation, GIP-only / Internalisation, Vehicle / Internalisation, +GIP: % internalization: residual fluorescence after Mesna vs pre-Mesna; conditions: Mean; for +GIP internalisation (100 nM) / GIP-specific internalisation (100 nM) / Constitutive internalisation (100 nM): Fig 4G; for +GIP internalisation (100 nM) / GIP-specific internalisation (100 nM): GIP 100 nM; for Internalisation, +GIP / Internalisation, GIP-only / Internalisation, Vehicle: Fig S4C, INS-1
# In short: as §1
# [6] = test system: wild-type and variant SNAP-GIPR; assay: Surface SNAP-GIPR expression (SNAP-tag labelling) in AD293 cells; conditions: for AD293 Surface: Fig S3E, mean; for Surface SNAP-GIPR expression: sheet Fig 1C;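 on all read-outs here: scaled to the experimental average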
# In short: as §3
# [7] = test system: wild-type and variant SNAP-GIPR; assay: Single-concentration GIP cAMP response by HTRF in INS-1 cells; conditions: Fig S3E, mean
# Protocol: as §2
# [8] = column repeated, paired with cAMP 100 nM
molecule,measurement,setting,value
B1,AD293 100 pM cADDis,[1],35.9341
same,AD293 100 nM cADDis,[1],39.48
same,+GIP internalisation (100 nM),[2],0.9894
same,GIP-specific internalisation (100 nM),[2],0.334
same,Constitutive internalisation (100 nM),[2],0.6554
same,Surface expression,[2],1.622
same,"Internalisation, +GIP",[2],61.1161
same,"Internalisation, GIP-only",[2],20.3657
same,"Internalisation, Vehicle",[2],40.7504
same,AD293 100 pM HTRF,[3],1.746
same,AD293 100 nM HTRF,[3],1.655
same,Surface expression,[4],1.361
same,+GIP internalisation (100 nM),[5],0.7615
same,GIP-specific internalisation (100 nM),[5],0.2318
same,Constitutive internalisation (100 nM),[5],0.5297
same,"Internalisation, +GIP",[5],53.475
same,"Internalisation, GIP-only",[5],16.2333
same,"Internalisation, Vehicle",[5],37.2417
same,AD293 Surface,[6]; [8],1.603
same,AD293 Surface,[6]; paired with cAMP 100 pM,1.603
same,Surface SNAP-GIPR expression,[6]; replicate 1,1.682
same,Surface SNAP-GIPR expression,[6]; replicate 2,1.688
same,Surface SNAP-GIPR expression,[6]; replicate 3,1.832
same,Surface SNAP-GIPR expression,[6]; replicate 4,2.161
same,Surface SNAP-GIPR expression,[6]; replicate 5,1.111
same,Surface SNAP-GIPR expression,[6]; replicate 6,1.49
same,Surface SNAP-GIPR expression,[6]; replicate 7,1.615
same,Surface SNAP-GIPR expression,[6]; replicate 8,1.417
same,Surface SNAP-GIPR expression,[6]; replicate 9,1.842
same,Surface SNAP-GIPR expression,[6]; replicate 10,1.526
same,Surface SNAP-GIPR expression,[6]; replicate 11,1.806
same,Surface SNAP-GIPR expression,[6]; replicate 12,1.746
same,Surface SNAP-GIPR expression,[6]; replicate 13,1.595
same,Surface SNAP-GIPR expression,[6]; replicate 14,2.152
same,Surface SNAP-GIPR expression,[6]; replicate 15,1.581
same,Surface SNAP-GIPR expression,[6]; replicate 16,1.661
same,Surface SNAP-GIPR expression,[6]; replicate 17,1.607
same,Surface SNAP-GIPR expression,[6]; replicate 18,1.471
same,Surface SNAP-GIPR expression,[6]; replicate 19,1.527
same,Surface SNAP-GIPR expression,[6]; replicate 20,1.649
same,Surface SNAP-GIPR expression,[6]; replicate 21,1.401
same,Surface SNAP-GIPR expression,[6]; replicate 22,1.64
same,Surface SNAP-GIPR expression,[6]; replicate 23,1.516
same,Surface SNAP-GIPR expression,[6]; replicate 24,1.737
same,Surface SNAP-GIPR expression,[6]; replicate 25,1.567
same,Surface SNAP-GIPR expression,[6]; replicate 26,1.448
same,Surface SNAP-GIPR expression,[6]; replicate 27,1.549
same,Surface SNAP-GIPR expression,[6]; replicate 28,1.925
same,Surface SNAP-GIPR expression,[6]; replicate 29,1.515
same,Surface SNAP-GIPR expression,[6]; replicate 30,1.373
same,Surface SNAP-GIPR expression,[6]; replicate 31,1.117
same,Surface SNAP-GIPR expression,[6]; replicate 32,1.576
same,Surface SNAP-GIPR expression,[6]; replicate 33,1.347
same,Surface SNAP-GIPR expression,[6]; replicate 34,1.595
same,Surface SNAP-GIPR expression,[6]; replicate 35,1.243
same,Surface SNAP-GIPR expression,[6]; replicate 36,1.381
same,Surface SNAP-GIPR expression,[6]; replicate 37,1.612
same,Surface SNAP-GIPR expression,[6]; replicate 38,1.594
same,Surface SNAP-GIPR expression,[6]; replicate 39,1.863
same,Surface SNAP-GIPR expression,[6]; replicate 40,1.797
same,Surface SNAP-GIPR expression,[6]; replicate 41,1.787
same,INS-1 cAMP (100 nM),[7],1.306
B2,AD293 100 pM cADDis,[1],30.0031
same,AD293 100 nM cADDis,[1],37.61
same,+GIP internalisation (100 nM),[2],0.5841
same,GIP-specific internalisation (100 nM),[2],0.1667
same,Constitutive internalisation (100 nM),[2],0.4174
same,Surface expression,[2],1.0064
same,"Internalisation, +GIP",[2],57.8459
same,"Internalisation, GIP-only",[2],16.6116
same,"Internalisation, Vehicle",[2],41.2342
same,AD293 100 pM HTRF,[3],0.5327
same,AD293 100 nM HTRF,[3],1.632
same,Surface expression,[4],0.9197
same,+GIP internalisation (100 nM),[5],0.4496
same,GIP-specific internalisation (100 nM),[5],0.1127
same,Constitutive internalisation (100 nM),[5],0.3368
same,"Internalisation, +GIP",[5],49.27
same,"Internalisation, GIP-only",[5],12.1983
same,"Internalisation, Vehicle",[5],37.0717
same,AD293 Surface,[6]; [8],0.7271
same,AD293 Surface,[6]; paired with cAMP 100 pM,0.7271
same,Surface SNAP-GIPR expression,[6]; replicate 1,0.3062
same,Surface SNAP-GIPR expression,[6]; replicate 2,0.3328
same,Surface SNAP-GIPR expression,[6]; replicate 3,0.1592
same,Surface SNAP-GIPR expression,[6]; replicate 4,0.8304
same,Surface SNAP-GIPR expression,[6]; replicate 5,0.6683
same,Surface SNAP-GIPR expression,[6]; replicate 6,0.6889
same,Surface SNAP-GIPR expression,[6]; replicate 7,0.4744
same,Surface SNAP-GIPR expression,[6]; replicate 8,0.7417
same,Surface SNAP-GIPR expression,[6]; replicate 9,0.7319
same,Surface SNAP-GIPR expression,[6]; replicate 10,0.4888
same,Surface SNAP-GIPR expression,[6]; replicate 11,0.5692
same,Surface SNAP-GIPR expression,[6]; replicate 12,0.5524
same,Surface SNAP-GIPR expression,[6]; replicate 13,0.6029
same,Surface SNAP-GIPR expression,[6]; replicate 14,0.8734
same,Surface SNAP-GIPR expression,[6]; replicate 15,0.6318
same,Surface SNAP-GIPR expression,[6]; replicate 16,0.7838
same,Surface SNAP-GIPR expression,[6]; replicate 17,0.7645
same,Surface SNAP-GIPR expression,[6]; replicate 18,0.8288
same,Surface SNAP-GIPR expression,[6]; replicate 19,0.8256
same,Surface SNAP-GIPR expression,[6]; replicate 20,0.8307
same,Surface SNAP-GIPR expression,[6]; replicate 21,0.7929
same,Surface SNAP-GIPR expression,[6]; replicate 22,0.7293
same,Surface SNAP-GIPR expression,[6]; replicate 23,0.8041
same,Surface SNAP-GIPR expression,[6]; replicate 24,0.7665
same,Surface SNAP-GIPR expression,[6]; replicate 25,0.8609
same,Surface SNAP-GIPR expression,[6]; replicate 26,0.8382
same,Surface SNAP-GIPR expression,[6]; replicate 27,0.9176
same,Surface SNAP-GIPR expression,[6]; replicate 28,0.9055
same,Surface SNAP-GIPR expression,[6]; replicate 29,1.047
same,Surface SNAP-GIPR expression,[6]; replicate 30,0.4161
same,Surface SNAP-GIPR expression,[6]; replicate 31,0.3148
same,Surface SNAP-GIPR expression,[6]; replicate 32,0.4777
same,Surface SNAP-GIPR expression,[6]; replicate 33,0.3827
same,Surface SNAP-GIPR expression,[6]; replicate 34,0.923
same,Surface SNAP-GIPR expression,[6]; replicate 35,0.8683
same,Surface SNAP-GIPR expression,[6]; replicate 36,0.9333
same,Surface SNAP-GIPR expression,[6]; replicate 37,0.8174
same,Surface SNAP-GIPR expression,[6]; replicate 38,1.012
same,Surface SNAP-GIPR expression,[6]; replicate 39,1.271
same,Surface SNAP-GIPR expression,[6]; replicate 40,1.105
same,Surface SNAP-GIPR expression,[6]; replicate 41,0.9446
same,INS-1 cAMP (100 nM),[7],1.326
